The kon is the second-order rate constant of association.

This assay concerns the target full-length human poly(A)-binding protein (PABP, PABPC1) (human, UniProt P11940 1-636). The assay can be described thus: FRET or BRET.

full-length human poly(A)-binding protein (PABP, PABPC1), sequence (P11940 whole entry): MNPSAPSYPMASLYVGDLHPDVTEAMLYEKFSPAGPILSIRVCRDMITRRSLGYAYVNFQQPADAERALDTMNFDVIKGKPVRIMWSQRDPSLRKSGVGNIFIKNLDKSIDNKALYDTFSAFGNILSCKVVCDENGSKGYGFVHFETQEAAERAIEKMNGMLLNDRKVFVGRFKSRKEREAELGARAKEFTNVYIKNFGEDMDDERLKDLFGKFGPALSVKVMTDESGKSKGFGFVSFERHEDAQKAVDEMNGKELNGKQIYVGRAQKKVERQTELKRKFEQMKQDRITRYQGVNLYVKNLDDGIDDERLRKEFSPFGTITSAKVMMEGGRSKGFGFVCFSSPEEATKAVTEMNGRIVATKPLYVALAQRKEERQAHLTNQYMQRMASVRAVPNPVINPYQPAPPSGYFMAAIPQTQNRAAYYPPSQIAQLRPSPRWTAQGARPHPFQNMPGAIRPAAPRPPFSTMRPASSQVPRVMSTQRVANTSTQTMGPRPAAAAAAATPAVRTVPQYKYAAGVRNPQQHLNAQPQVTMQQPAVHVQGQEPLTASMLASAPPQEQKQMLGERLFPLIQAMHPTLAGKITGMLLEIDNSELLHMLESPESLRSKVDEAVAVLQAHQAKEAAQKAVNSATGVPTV

B1: GST-tagged human PABP-interacting protein 2 (Paip2) (natural protein, UniProt Q9BPZ3 1-127, looked up)
chain: MKDPSRSSTSPSIINEDVIINGHSHEDDNPFAEYMWMENEEEFNRQIEEELWEEEFIERCFQEMLEEEEEHEWFIPARDLPQTMDQIQDQFNDLVISDGSSLEDLVVKSNLNPNAKEFVPGVKYGNI
Consider B1, for which the kon was found to be 153000 M⁻¹ s⁻¹.

The record behind these values is article PMC3936760 (Nucleic Acids Research, 2013).
